# From patent US6713276B2, “Modulation of Aβ levels by β-secretase BACE2” (Scios, Inc., priority 2000, dated 2004)
# B1: BACE2: human aspartyl protease, close homolog of BACE (SEQ ID NO: 2), expressed from pcDNA3.1(−)/BACE2 in transfected cells (protein)
# chain: MGALARALLLPLLAQWLLRAAPELAPAPFTLPLRVAAATNRVVAPTPGPGTPAERHADGLALALEPALASPAGAANFLAMVDNLQGDSGRGYYLEMLIGTPPQKLQILVDTGSSNFAVAGTPHSYIDTYFDTERSSTYRSKGFDVTVKYTQGSWTGFVGEDLVTIPKGFNTSFLVNIATIFESENFFLPGIKWNGILGLAYATLAKPSSSLETFFDSLVTQANIPNVFSMQMCGAGLPVAGSGTNGGSLVLGGIEPSLYKGDIWYTPIKEEWYYQIEILKLEIGGQSLNLDCREYNADKAIVDSGTTLLRLPQKVFDAVVEAVARASLIPEFSDGFWTGSQLACWTNSETPWSYFPKISIYLRDENSSRSFRITILPQLYIQPMMGAGLNYECYRFGISPSTNALVIGATVMEGFYVIFDRAQKRVGFAASPCAEIAGAAVSEISGPFSTEDVASNCVPAQSLSEPILWIVSYALMSVCGAILLVLIVLLLLPFRCQRRPRDPEVVNDESSLVRHRWK
# Tested on: APP751wt
# Assay: cell-free β-secretase assay, β-NTF ELISA, APP751wt substrate
# Type: biochemical, human
# Settings: membrane extracts of transfected HEK293 cells, incubation up to 8 hours
# Protocol: The β-secretase assay consists of two different parts, an incubation or reaction phase to generate β-NTF and an ELISA part to capture and measure the β-NTF generated by β-secretase. The β-secretase ELISA was performed as follows. Each well of a 96 well plate containing a flat bottom (high protein binding, Corning, N.Y.) was coated with 100 μl of the monoclonal capture antibody 8E5 (at ˜8-10 μg/ml) (Johnson-Wood et al. Proc. Natl. Acad. Sci. USA 94: 1550-1555 [1997]). The plate was then covered with parafilm and incubated overnight at 4° C. or alternatively for 2 hours at 37° C. […]
# One hundred μl of a 1:5000 dilution of a goat anti rabbit IgG-HRP in Antibody-Conjugate Buffer was then added to each well, and the plate incubated at room temperature for one hour. […] After sufficient blue color had developed, the reactions were stopped by adding 100 μl of 5N H2SO4 to each well, and the amount of βNTF was determined by reading the plate at 450 nm in a Softmax spectrophotometer.
# Equal amounts of membrane extracts from either mock, BACE or BACE2 transfected HEK293 cells were incubated with partially purified full length APP751 sw or APP751wt for the indicated times. The formation of β-NTF was then determined using the respective β-NTF specific ELISA as described in General Methodology.
molecule,measurement,value
B1,β-NTF formation (β-secretase cleavage in vitro),cleaved APP751wt to a similar extent as BACE
